The term stoichiometry N denotes the number of molecules, sites or subunits per partner or assembly.

Our source for the stoichiometry N values is publication doi:10.1101/2024.04.06.588283.

The target in this assay is MBP-PrLD (C-terminal half of FCA containing prion-like domains) (Arabidopsis). As to the kind of experiment: SEC-MALS. For orientation: In gel filtration, larger molecules generally elute earlier.

A value given as a limit tells only on which side of the number the result lay.

“MBP-PrLD (C-terminal half of FCA containing prion-like domains) (domain or fragment)” gave a stoichiometry N of over 100 molecules.
